Square brackets hold non-standard residues; d marks the D form. Peptide text beside a SMILES is read from it. Phe(4-I) = N[C@@H](Cc1ccc(I)cc1)C(=O)O; dPhe(4-I) = N[C@H](Cc1ccc(I)cc1)C(=O)O; 2Nal = N[C@@H](Cc1ccc2ccccc2c1)C(=O)O; d2Nal = N[C@H](Cc1ccc2ccccc2c1)C(=O)O
Legend:
[1] = target: mMC1R (Mus musculus, UniProt Q01727); test: AlphaScreen cAMP agonist assay, HEK293 cells stably expressing mMC1R; format: cell-based; conditions: for mMC1R agonist activity in words: full agonist = 90% of maximal NDP-MSH signal
Sequence of mMC1R (Q01727 whole entry): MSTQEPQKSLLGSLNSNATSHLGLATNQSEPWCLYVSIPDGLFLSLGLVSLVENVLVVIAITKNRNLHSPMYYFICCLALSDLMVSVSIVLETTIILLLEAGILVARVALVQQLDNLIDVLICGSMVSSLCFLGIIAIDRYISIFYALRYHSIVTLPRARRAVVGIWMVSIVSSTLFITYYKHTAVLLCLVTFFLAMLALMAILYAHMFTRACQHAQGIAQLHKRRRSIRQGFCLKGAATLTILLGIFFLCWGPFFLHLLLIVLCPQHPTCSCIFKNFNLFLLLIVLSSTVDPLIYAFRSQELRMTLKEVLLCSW

[2] = target: mMC3R (Mus musculus, UniProt P33033); test: AlphaScreen cAMP agonist assay, HEK293 cells stably expressing mMC3R; format: cell-based; conditions: at 100 μM
Sequence of mMC3R (P33033 whole entry): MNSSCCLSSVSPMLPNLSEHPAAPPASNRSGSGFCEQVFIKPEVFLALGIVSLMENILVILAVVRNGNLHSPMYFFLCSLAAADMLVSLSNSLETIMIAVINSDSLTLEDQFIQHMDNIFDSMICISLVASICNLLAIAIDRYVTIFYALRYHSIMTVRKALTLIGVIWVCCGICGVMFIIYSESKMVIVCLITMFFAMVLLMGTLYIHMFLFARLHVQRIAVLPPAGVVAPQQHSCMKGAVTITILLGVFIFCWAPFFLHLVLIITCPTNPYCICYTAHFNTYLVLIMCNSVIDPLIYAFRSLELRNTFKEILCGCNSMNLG

[3] = target: mMC5R (Mus musculus, UniProt P41149); test: AlphaScreen cAMP agonist assay, HEK293 cells stably expressing mMC5R; format: cell-based
Sequence of mMC5R (P41149 whole entry): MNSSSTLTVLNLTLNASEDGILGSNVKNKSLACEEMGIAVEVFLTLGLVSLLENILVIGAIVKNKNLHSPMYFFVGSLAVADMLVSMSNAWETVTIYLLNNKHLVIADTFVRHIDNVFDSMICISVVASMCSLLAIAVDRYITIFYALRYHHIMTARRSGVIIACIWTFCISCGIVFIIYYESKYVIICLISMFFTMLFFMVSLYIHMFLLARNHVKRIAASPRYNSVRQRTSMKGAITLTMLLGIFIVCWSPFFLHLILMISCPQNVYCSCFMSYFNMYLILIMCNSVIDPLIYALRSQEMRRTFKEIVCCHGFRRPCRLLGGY

[4] = target: mouse melanocortin-1 receptor (mouse) (UniProt Q01727)
Sequence of mouse melanocortin-1 receptor (mouse) (Q01727 whole entry): as the sequence (Q01727 whole entry) above

[5] = target: mouse melanocortin-3 receptor (mouse) (UniProt P33033)
Sequence of mouse melanocortin-3 receptor (mouse) (P33033 whole entry): as the sequence (P33033 whole entry) above

[6] = target: mouse melanocortin-4 receptor (mouse) (UniProt P56450)
Sequence of mouse melanocortin-4 receptor (mouse) (P56450 whole entry): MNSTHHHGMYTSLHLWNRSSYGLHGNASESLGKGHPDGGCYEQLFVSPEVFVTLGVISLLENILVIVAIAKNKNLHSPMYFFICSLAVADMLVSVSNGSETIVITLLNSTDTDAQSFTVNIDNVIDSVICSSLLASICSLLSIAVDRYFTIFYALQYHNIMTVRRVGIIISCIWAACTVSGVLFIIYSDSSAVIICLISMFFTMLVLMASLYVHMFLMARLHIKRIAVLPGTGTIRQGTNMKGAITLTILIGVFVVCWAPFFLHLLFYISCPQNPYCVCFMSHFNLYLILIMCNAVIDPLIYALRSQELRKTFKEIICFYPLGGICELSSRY

[7] = target: mouse melanocortin-5 receptor (mouse) (UniProt P41149)
Sequence of mouse melanocortin-5 receptor (mouse) (P41149 whole entry): as the sequence (P41149 whole entry) above

[8] = target: mouse melanocortin-3 receptor (mouse) (UniProt P33033); remark: listed apart in the source
[9] = target: mouse melanocortin-4 receptor (mouse) (UniProt P56450); remark: listed apart in the source

| Molecule | mMC1R agonist activity in words [1] | agonist EC50, cAMP AlphaScreen [5] [µM] | agonist EC50, cAMP AlphaScreen [6] [µM] | agonist EC50, cAMP AlphaScreen [7] [µM] | pA2, antagonism of NDP-MSH at mMC3R, Schild analysis, cAMP AlphaScreen [8] | pA2, antagonism of NDP-MSH at mMC4R, Schild analysis, cAMP AlphaScreen [9] | also measured |
| --- | --- | --- | --- | --- | --- | --- | --- |
| CC(=O)N[C@H](Cc1ccc(I)cc1)C(=O)N[C@@H](CCCNC(=N)N)C(=O)N[C@@H](Cc1c[nH]c2ccccc12)C(=O)N[C@@H](CCCNC(=N)N)C(N)=O [Peptide 42, Ac-DPhe(pI)-Arg-Trp-Arg-NH2] (Ac-[dPhe(4-I)]RWR-NH2) | – | – | – | – | – | – | mMC1R partial agonist percentage of receptor activation relative to NDP-MSH ([1]; partial agonists): 50 % NDP; mMC3R percent maximal stimulatory response (compared to NDP-MSH) [2]: 25% @100μM |
| CC(=O)N[C@H](Cc1ccc(I)cc1)C(=O)N[C@@H](CCCNC(=N)N)C(=O)N[C@H](Cc1ccc(I)cc1)C(=O)N[C@H](CCCCN)C(N)=O [Peptide 43, Ac-DPhe(pI)-Arg-DPhe(pI)-DLys-NH2] (Ac-[dPhe(4-I)]R[dPhe(4-I)][dK]-NH2) | full agonist activity | – | – | – | – | – | – |
| CC(=O)N[C@H](Cc1ccc(I)cc1)C(=O)N[C@@H](CCCNC(=N)N)C(=O)N[C@H](Cc1ccc(I)cc1)C(=O)N[C@H](Cc1ccc2ccccc2c1)C(N)=O [Peptide 44, Ac-DPhe(pI)-Arg-DPhe(pI)-DNal(2’)-NH2] (Ac-[dPhe(4-I)]R[dPhe(4-I)][d2Nal]-NH2) | full agonist activity | – | – | – | – | – | mMC3R percent maximal stimulatory response (compared to NDP-MSH) [2]: 40% @100μM; mMC5R percent maximal stimulatory response (compared to NDP-MSH) ([3]; at 100 μM): 65% @100μM |
| CC(=O)N[C@H](Cc1ccc(I)cc1)C(=O)N[C@@H](CCCNC(=N)N)C(=O)N[C@H](Cc1ccc(I)cc1)C(=O)N[C@@H](CCCNC(=N)N)C(N)=O [Peptide 45, Ac-DPhe(pI)-Arg-DPhe(pI)-Arg-NH2] (Ac-[dPhe(4-I)]R[dPhe(4-I)]R-NH2) | full agonist activity | – | – | – | – | – | – |
| CC(=O)N[C@@H](Cc1ccc(I)cc1)C(=O)N[C@@H](Cc1ccc2ccccc2c1)C(=O)N[C@@H](Cc1ccc(I)cc1)C(=O)N[C@@H](CCCNC(=N)N)C(N)=O [Peptide 49, Ac-Phe(pI)-Nal(2’)-Phe(pI)-Arg-NH2] (Ac-[Phe(4-I)][2Nal][Phe(4-I)]R-NH2) | partially stimulate | – | – | – | – | – | mMC5R EC50 ([3]; agonist, >100,000 = no agonist activity up to 100 μM): did not possess agonist activity |
| Ac-[d2Nal]R[2Nal][dK]-NH2 | – | > 100 | > 100 | > 100 | 6.2 | 7.8 | % receptor activation relative to NDP-MSH (partial agonist), cAMP AlphaScreen [4]: 50%; apparent EC50 (partial agonist), cAMP AlphaScreen [4]: 3.3 µM |
| Ac-[d2Nal][d2Nal]WR-NH2 | – | – | – | – | < 5.5 | < 5.5 | % of maximal NDP-MSH response at 100 μM, cAMP AlphaScreen [4]: 45%; % of maximal NDP-MSH response at 100 μM, cAMP AlphaScreen [5]: 35%; % of maximal NDP-MSH response at 100 μM, cAMP AlphaScreen [6]: 60%; % of maximal NDP-MSH response at 100 μM, cAMP AlphaScreen [7]: 45% |
| Ac-[dPhe(4-I)]R[2Nal]R-NH2 | – | > 100 | – | > 100 | 7.8 | – | % of maximal NDP-MSH response at 100 μM, cAMP AlphaScreen [4]: 25%; % of maximal NDP-MSH response at 100 μM, cAMP AlphaScreen [6]: 25%; antagonist Ki = 10^-(pA2), NDP-MSH at mMC4R, cAMP AlphaScreen [9]: 1 nM |
| Ac-[dPhe(4-I)]RW[dK]-NH2 (SMILES CC(=O)N[C@H](Cc1ccc(I)cc1)C(=O)N[C@@H](CCCNC(=N)N)C(=O)N[C@@H](Cc1c[nH]c2ccccc12)C(=O)N[C@H](CCCCN)C(N)=O) [Ac-DPhe(pI)-Arg-Trp-DLys-NH2] | – | > 100 | > 100 | > 100 | 6.2 | 7.6 | agonist EC50, cAMP AlphaScreen [4]: > 100 µM |
| Ac-[dPhe(4-I)]RWR-NH2 (SMILES CC(=O)N[C@H](Cc1ccc(I)cc1)C(=O)N[C@@H](CCCNC(=N)N)C(=O)N[C@@H](Cc1c[nH]c2ccccc12)C(=O)N[C@@H](CCCNC(=N)N)C(N)=O) [Ac-DPhe(pI)-Arg-Trp-Arg-NH2] | – | – | > 100 | > 100 | 7.4 | 8.7 | % receptor activation relative to NDP-MSH (partial agonist), cAMP AlphaScreen [4]: 50%; apparent EC50 (partial agonist), cAMP AlphaScreen [4]: 7.9 µM; % of maximal NDP-MSH response at 100 μM, cAMP AlphaScreen [5]: 25% |
| Ac-[dPhe(4-I)]R[dPhe(4-I)][dK]-NH2 (SMILES CC(=O)N[C@H](Cc1ccc(I)cc1)C(=O)N[C@@H](CCCNC(=N)N)C(=O)N[C@H](Cc1ccc(I)cc1)C(=O)N[C@H](CCCCN)C(N)=O) [Ac-DPhe(pI)-Arg-DPhe(pI)-DLys-NH2] | – | > 100 | > 100 | > 100 | 7.5 | 8.5 | agonist EC50, cAMP AlphaScreen [4]: 0.035 µM |
| Ac-[dPhe(4-I)]R[dPhe(4-I)]R-NH2 (SMILES CC(=O)N[C@H](Cc1ccc(I)cc1)C(=O)N[C@@H](CCCNC(=N)N)C(=O)N[C@H](Cc1ccc(I)cc1)C(=O)N[C@@H](CCCNC(=N)N)C(N)=O) [Ac-DPhe(pI)-Arg-DPhe(pI)-Arg-NH2] | – | > 100 | > 100 | > 100 | 7.4 | 8.5 | agonist EC50, cAMP AlphaScreen [4]: 0.007 µM |

From paper PMC8533642 (Journal of medicinal chemistry, 2021)
